This data set is described as follows: amyloid nucleation score (Sup35N fusion, yeast selection) (log enrichment); library NNK3; higher = more nucleation; inactive = no reads after selection. The method in brief: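 Nucleation score is defined as the DiMSum log enrichment of output over input reads, with centring on the mode score of non-aggregating sequences. A minimum of 100 input reads was required for each sequence. Reads came from Illumina sequencing of plasmid inserts from psi-negative yeast expressing Sup35N fused to peptides of 20 random codons, induced with 100 μM copper sulfate for 24 hours and grown 7 days at 30°C on medium lacking adenine and uracil.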

± gives the uncertainty stated by the source.

Consider LVWHLHSSSCRARCRIGGGK, for which the amyloid nucleation score entry is “inactive”.

On to KEAPIWRKKGQNLLLPVSGW, for which the amyloid nucleation score entry was “inactive”.

Take SYWLCEVMTLYFFNCFYVLG: the amyloid nucleation score result is “inactive”.

On to VLFRKCQCVRSHLI, for which the amyloid nucleation score entry is “inactive”.

Substance ERRNRMFSWCWCSSSLLDAE displayed an amyloid nucleation score of -0.08 ± 1.

Turning to EVVVELIMLS, the amyloid nucleation score result was “inactive”.

Substance VIIICQLHCYTKTMIIRHRC came in with an amyloid nucleation score of 0.118 ± 0.3.

For the substance VNGNVDKFQKSKSLGTFVTT, the amyloid nucleation score result was “inactive”.

On to RTGSHEMLIICFCVTSVL, for which the amyloid nucleation score result is “inactive”.

Turning to WLFNYRILCLSVMWFTKSIE, the amyloid nucleation score result is “inactive”.

In the case of PSVIRNAYYAY, the amyloid nucleation score entry was “inactive”.

In turn, VLIITLMYMYATFLSFYKPQ yielded an amyloid nucleation score of 2.59 ± 0.085.

For TLSHIGGIEGFINGCLSVGP, the amyloid nucleation score entry is “inactive”.

Turning to SLVAYLIEGIFNLWEALMDR, the amyloid nucleation score entry is “inactive”.

For the substance LNPLMFKMRFLMEYNLAWGV, the amyloid nucleation score was found to be 0.891 ± 0.28.

As to RLVAFGRRWDESSKVECMWS, the amyloid nucleation score entry was “inactive”.

For KRFVFPLLIR, the amyloid nucleation score result is “inactive”.

On to ARYDRS, for which the amyloid nucleation score result is “inactive”.

In the case of DSIFSWSFRGFSCVN, the amyloid nucleation score entry is “inactive”.

Take VFCPTWFTMGGVCIAVAHLV: the amyloid nucleation score turned out to be 0.486 ± 0.33.

Consider SYCDSNRGVDLV, for which the amyloid nucleation score was -0.611 ± 0.75.

As for RFLFSCCVGL, the amyloid nucleation score came to 2.3 ± 0.06.

Turning to SAWSTECYVMCSM, the amyloid nucleation score entry is “inactive”.

For GSSWCLTLWLKNSLATVQTQ, the amyloid nucleation score result was “inactive”.

As for ESTIEMIAL, the amyloid nucleation score was 1.25 ± 0.11.

Consider GGRTM, for which the amyloid nucleation score entry is “inactive”.

Take CSLRLVAFSACGV: the amyloid nucleation score result is “inactive”.

Take KIDAN: the amyloid nucleation score result is “inactive”.

TVFSCYSWELEMMLWDGSYM: the amyloid nucleation score entry was “inactive”.

Regarding VSASILS, the amyloid nucleation score entry was “inactive”.

Turning to MCEMVFTWDSWLLRRIRQDW, the amyloid nucleation score is 1.5 ± 0.087.

Consider FDRLNRDDVIFPSRDFNVSS, for which the amyloid nucleation score result was “inactive”.

For KEFCVRPLYRFSVRMNIC, the amyloid nucleation score was determined as 0.035 ± 0.62.

In the case of EDPGLYFLRVS, the amyloid nucleation score entry is “inactive”.

Consider CSGYSTNFGK, for which the amyloid nucleation score entry is “inactive”.

GDNSLTYMSAM: the amyloid nucleation score entry is “inactive”.

Consider VSTWGRDLVVTIAGR, for which the amyloid nucleation score result is “inactive”.

SYGDPCQAKGQIRIVYGWHW returned an amyloid nucleation score of 0.308 ± 0.25.

Turning to TDMIQYKHRLYTIILSNYAR, the amyloid nucleation score result is “inactive”.

On to KKGGLLLLNKYN, for which the amyloid nucleation score result was “inactive”.

As to YIEWLDFR, the amyloid nucleation score entry is “inactive”.

Substance RLCSVGLAVYYMACSEYKMR yielded an amyloid nucleation score of 0.103 ± 0.29.

In the case of EVFARIVPRDMMLFLILIIP, the amyloid nucleation score entry is “inactive”.

As for TYEVPGPPSQRSLSY, the amyloid nucleation score result is “inactive”.

For the substance NLMWL, the amyloid nucleation score result is “inactive”.

For RWFDTFLCLSR, the amyloid nucleation score entry is “inactive”.

On to SCSSTDDWPGISSG, for which the amyloid nucleation score entry was “inactive”.

Turning to IDRHAPSEESVPFWSYWNNG, the amyloid nucleation score result was “inactive”.

With GLCWRMLTFLWSFVSMENNG, the amyloid nucleation score was -0.565 ± 1.1.

On to GSALVLCELGSVAKSLSGNL, for which the amyloid nucleation score entry was “inactive”.

For WINGTISDC, the amyloid nucleation score entry was “inactive”.

Consider QNVFWIVSGTSEWGSALVFG, for which the amyloid nucleation score entry is “inactive”.

As for GMMICMISWWVWNFACVDIR, the amyloid nucleation score result is “inactive”.

Regarding TLSYVCTNAGGSVFMTCLFF, the amyloid nucleation score was -0.104 ± 0.58.

With SFNFSPCVYTCVRMCIWGYF, the amyloid nucleation score entry was “inactive”.

Consider AASIFGNSV, for which the amyloid nucleation score entry is “inactive”.

Turning to TLNMEFIQFTRSFGKSISPC, the amyloid nucleation score entry was “inactive”.

Take LLCND: the amyloid nucleation score result was “inactive”.

On to EVFGVIDDNYFCR, for which the amyloid nucleation score entry is “inactive”.

On to PWDSLW, for which the amyloid nucleation score turned out to be 0.894 ± 0.12.

For LYPMGFQ, the amyloid nucleation score entry was “inactive”.

IICLSGGDFRRYELDHSN: the amyloid nucleation score result is “inactive”.

Take IRTSLSSVLDVCHTSNTI: the amyloid nucleation score result was “inactive”.

Consider YHLLFIVKAYIGVILNFLRS, for which the amyloid nucleation score entry is “inactive”.

Take RNVCMSEVGSVDKSSLLHGN: the amyloid nucleation score entry was “inactive”.

AFKMVLIGFMSMVERSNVHG: the amyloid nucleation score result is “inactive”.

YRYYCWNCCELGIDGTMWVA yielded an amyloid nucleation score of -0.526 ± 0.45.

In the case of FYFGTG, the amyloid nucleation score result was “inactive”.

Regarding CVRYWKLGVVLRDG, the amyloid nucleation score result was “inactive”.

Consider HGQFMWLMYYMNILSFLLGF, for which the amyloid nucleation score result was “inactive”.

As for ILDAMDTLLRYSGCDRLSWK, the amyloid nucleation score result was “inactive”.

For ITQWWVYIKNF, the amyloid nucleation score entry is “inactive”.

In the case of DLVPVIHGIYWAG, the amyloid nucleation score entry was “inactive”.

On to AGRNMSLCNLHLILLCTSKC, for which the amyloid nucleation score result was “inactive”.

Regarding TEDGPYTIWH, the amyloid nucleation score entry is “inactive”.

Turning to SILWSPIDEGLIIVSSVTFL, the amyloid nucleation score result is “inactive”.

Take MIIAFFCDYNGVEG: the amyloid nucleation score result is “inactive”.

The substance NTCDAPMSNGYAWWD returned an amyloid nucleation score of -0.399 ± 0.75.

Consider SSVYCL, for which the amyloid nucleation score was -0.781 ± 1.3.

Consider YFFVSWFRCMGPILSFTRVV, for which the amyloid nucleation score result was “inactive”.

Regarding SHECHSFLHVLFNVACSWGG, the amyloid nucleation score result is “inactive”.

As to WYYCRLRACVRH, the amyloid nucleation score result is “inactive”.

In the case of YLGFFTAYA, the amyloid nucleation score entry is “inactive”.

Consider CLRECWCSGNTTHGSHWSTC, for which the amyloid nucleation score result is “inactive”.

With DAIIVSIAYILG, the amyloid nucleation score result was “inactive”.

In the case of VHDRSLHLVGY, the amyloid nucleation score was -0.841 ± 1.2.

With YMIDPYKEEVLPP, the amyloid nucleation score result was “inactive”.

MSMLKFIYFDYSMDSLHIIW: the amyloid nucleation score entry is “inactive”.

For SCRIMSRYGAQIWCDPTYQA, the amyloid nucleation score result was “inactive”.

For the substance DYCLSLLWINMPHVGNIVNL, the amyloid nucleation score result was “inactive”.

Take CNHVLTNRLMHSSKNRCLFI: the amyloid nucleation score result was “inactive”.

In the case of SLSATCLCTVMSTNFIFYVF, the amyloid nucleation score is 0.509 ± 0.41.

In the case of SMQVQMTWLCDRSSLGQRNQ, the amyloid nucleation score is 1.6 ± 0.11.

CKILHDRHMYVCLFAYCFVC: the amyloid nucleation score entry is “inactive”.

Take WHIEVC: the amyloid nucleation score entry was “inactive”.

Consider YDMSDMNCRRIW, for which the amyloid nucleation score result is “inactive”.

On to RSYFGMARGAHFSAHFLLFL, for which the amyloid nucleation score result is “inactive”.

As for CTHHKNACL, the amyloid nucleation score result is “inactive”.

Take ANSNAFIQSDHIRYLLDFAM: the amyloid nucleation score turned out to be 0.725 ± 0.18.

As to CHPGASSTGSKLTSRNCL, the amyloid nucleation score result is “inactive”.

Consider LMNTYL, for which the amyloid nucleation score was found to be 1.71 ± 0.099.

Take GYLLVVW: the amyloid nucleation score entry is “inactive”.

In the case of LNFNSWNGLKYR, the amyloid nucleation score entry is “inactive”.

On to DMHGRSNNLW, for which the amyloid nucleation score result is “inactive”.

For the substance LYGLLSCSERVVKLWFWSWV, the amyloid nucleation score entry was “inactive”.

With AVLHMSCNWDKQFYNLLCFC, the amyloid nucleation score entry was “inactive”.

For HLAHLSRSLSVKSSSVMKGH, the amyloid nucleation score entry was “inactive”.

For VVMFSTPDIVDILSHVYRLG, the amyloid nucleation score result was “inactive”.

Substance THNVSKKWLVGVMCINSGRH returned an amyloid nucleation score of 1.59 ± 0.099.

As to DVLHLRCREVRRDVGYVTEF, the amyloid nucleation score entry was “inactive”.

In the case of NSKYLLD, the amyloid nucleation score entry is “inactive”.

As to ILPLMEFGEPKFESSVYSS, the amyloid nucleation score entry is “inactive”.

The substance YVMNHTLGAILNAFRGI yielded an amyloid nucleation score of 1.04 ± 0.17.

RRSKISLS: the amyloid nucleation score result was “inactive”.

Turning to PGSGIHNWMNCYRSLKE, the amyloid nucleation score result was “inactive”.

Substance DRLALEFVYRR yielded an amyloid nucleation score of 0.145 ± 0.44.

In the case of AFFWCR, the amyloid nucleation score came to 0.314 ± 0.25.

With ISNSYH, the amyloid nucleation score entry was “inactive”.

For the substance YGSKWTLKVFWIMMCFDELP, the amyloid nucleation score entry was “inactive”.

With CTSLRLESPDFFSKRERSSN, the amyloid nucleation score entry is “inactive”.

Take PFPQWEKHYYFFAMNYFHFS: the amyloid nucleation score turned out to be 1.75 ± 0.061.

On to TVGQQWRPSRKLSSSSAIRN, for which the amyloid nucleation score entry is “inactive”.

In the case of DVSWRTPYTIKNYGSFFLIK, the amyloid nucleation score result was “inactive”.

For the substance HILHLRLDYFLGA, the amyloid nucleation score was 0.401 ± 0.3.

FSHFMSSTYYCC came in with an amyloid nucleation score of 1.73 ± 0.12.

Take SRQARCKPCVSCWDRCMWMI: the amyloid nucleation score result was “inactive”.

For the substance VSMVQVTIRKRAS, the amyloid nucleation score result is “inactive”.

As to IQLWRTADGVYKVSGVNK, the amyloid nucleation score result was “inactive”.

Consider CLFWMTWDVSRDS, for which the amyloid nucleation score entry was “inactive”.

Turning to CRFVNLFGCVGS, the amyloid nucleation score result was “inactive”.

As for RSDMTAHDTNDAVQLEPSVE, the amyloid nucleation score result was “inactive”.

For the substance VDCMATSQGRIRKYVNFVIW, the amyloid nucleation score is 2.35 ± 0.08.

For the substance KDYGLADGERHESM, the amyloid nucleation score result was “inactive”.

TSLLAELLVWWE: the amyloid nucleation score entry is “inactive”.
